The target in data set [1] is CTP. The experiment in a line: membrane-spotting assay (DRaCALA). The following applies: highest protein concentration point (about 12.5 µM on x axis); 5 nM radiolabeled CTP α-P32, 30 µM unlabeled CTP, 1.5 µM 22 bp parS DNA; parent: est. 13; read off a plot.
Data set [2] concerns the target C. crescentus ParB (L224C I304C), dual-cysteine variant (C. crescentus) (UniProt B8GW30). The experiment in a line: cross-linking; BMOE double crosslinking of 8 µM dual-cysteine ParB variant ± 0.5 µM DNA (22 bp parS, circular 3 kb parS or scrambled parS plasmid) ± 1 mM CTP; denaturing polyacrylamide and agarose gels; post-treatment with Benzonase or TEV protease; protein released from gel slices of the HMW smear.

The target of data set [3] is T1, C. crescentus ParB (WT); ParB-His6 (Caulobacter vibrioides, UniProt B8GW30, E102A).
T1 construct: full length, C-terminal His6 (pET21b), made in E. coli; dimer
T1 sequence (B8GW30 whole entry E102A): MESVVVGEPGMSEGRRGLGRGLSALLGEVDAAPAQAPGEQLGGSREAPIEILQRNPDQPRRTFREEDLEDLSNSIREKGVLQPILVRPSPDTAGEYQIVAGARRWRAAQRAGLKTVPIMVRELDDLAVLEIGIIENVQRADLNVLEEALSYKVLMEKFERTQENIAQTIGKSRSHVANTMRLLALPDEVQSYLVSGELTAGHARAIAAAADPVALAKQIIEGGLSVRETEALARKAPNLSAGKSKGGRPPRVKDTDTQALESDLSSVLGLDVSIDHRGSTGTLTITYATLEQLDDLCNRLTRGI
The experiment in a line: DRaCALA membrane-spotting. The format is binding. Conditions: labelled compound (5 nM 32P-alpha-CTP with 30 uM unlabelled CTP); 1.5 uM 22 bp parS DNA; 10 mM CaCl2, pH 8.0, room temperature.

The target of data set [4] is T2, C. crescentus ParB (WT); ParB-His6 (Caulobacter vibrioides, UniProt B8GW30).
T2 construct: full length, C-terminal His6 (pET21b), made in E. coli; dimer
T2 sequence (B8GW30 whole entry): as the sequence (B8GW30 whole entry E102A) above, with A102E counted along it
The experiment in a line: EnzChek inorganic phosphate release. It counts as biochemical. The following applies: 0-1000 uM CTP, 1 uM ParB, 0.5 uM 22 bp parS DNA; Mg2+, pH 8.0, 25 C; rates only in figure.

Data set [5] concerns the molecule itself. Description: cross-linking; BMOE (1 mM) crosslinking of symmetry-related cysteines; 8 µM single-cysteine ParB variant ± 0.5 µM 22 bp parS DNA ± CTP (0-1000 µM); 10 mM Tris-HCl pH 7.4, 100 mM NaCl, 1 mM MgCl2; 5 min at room temperature; denaturing polyacrylamide gel.
For data set [6], the target named is T3, ParB∆CTD-His6 (Caulobacter crescentus, UniProt B8GW30 11-254).
T3 sequence: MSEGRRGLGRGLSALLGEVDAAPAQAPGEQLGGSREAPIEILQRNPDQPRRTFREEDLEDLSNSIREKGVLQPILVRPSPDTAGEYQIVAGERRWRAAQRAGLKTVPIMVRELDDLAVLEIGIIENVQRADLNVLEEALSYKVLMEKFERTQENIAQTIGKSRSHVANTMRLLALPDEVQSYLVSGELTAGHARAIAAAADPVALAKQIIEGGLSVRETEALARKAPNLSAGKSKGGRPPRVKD
The experiment in a line: crystal structure; no nucleotide; BLI: 100 mM Tris-HCl pH 8.0, 100 mM NaCl, 1 mM MgCl2, 0.005% Tween 20, 22 °C, 1 µM ParB dimer (5 µM for Q35C); crosslinking: 8 µM ParB, 0.5 µM DNA, ±1 mM CTP. Conditions: protein: recombinant; tags: C-terminal His6; chain copies: 2; blunt, self-complementary palindrome.

For C. crescentus ParB (WT) Q58A, in data set [1], the response amounted to 10%.

C. crescentus ParB (WT) E135A: the response in data set [1] came to 26%.

For C. crescentus ParB (WT) R139A, the response in data set [1] was determined as 1.5%.

Take C. crescentus ParB (WT) N136A: in data set [1], the response is 0.7%.

Consider C. crescentus ParB (WT) E102A, for which, in data set [1], the response came out at 24%.

Take C. crescentus ParB (WT) G79S: the response in data set [1] is 3.5%.

As to C. crescentus ParB (WT) S74A, the response in data set [1] came out at 0.5%.

Regarding C. crescentus ParB (WT) Q82A, the response in data set [1] stood at 15%.

As usually defined, the stoichiometry N is the number of molecules, sites or subunits per partner or assembly. Turning to “C. crescentus ParB (L224C I304C), dual-cysteine variant (from UniProt B8GW30 1-304)”, in data set [2], the stoichiometry N is 2.

For the molecule `Nc1ccn([C@@H]2O[C@H](COP(=O)(O)OP(=O)(O)OP(=O)(O)O)[C@@H](O)[C@H]2O)c(=O)n1` [CTP], the DRaCALA membrane-spotting result in data set [3] is listed as “ParB (E102A) did not hydrolyze CTP (Figure 6B) but nevertheless bound CTP efficiently”. The “EnzChek inorganic phosphate release” value in data set [4] is reported as “The CTPase rates were measured at increasing concentration of CTP”.

As to C. crescentus ParB (WT) R104A, the response in data set [1] amounted to 0%.

In the case of C. crescentus ParB (WT) R60A, the response in data set [1] worked out at 0.7%.

B1: C. crescentus ParB (Q35C) on a cysteine-less ParB (C297S) background (natural protein, UniProt B8GW30 1-304, looked up)
chain: MESVVVGEPGMSEGRRGLGRGLSALLGEVDAAPACAPGEQLGGSREAPIEILQRNPDQPRRTFREEDLEDLSNSIREKGVLQPILVRPSPDTAGEYQIVAGERRWRAAQRAGLKTVPIMVRELDDLAVLEIGIIENVQRADLNVLEEALSYKVLMEKFERTQENIAQTIGKSRSHVANTMRLLALPDEVQSYLVSGELTAGHARAIAAAADPVALAKQIIEGGLSVRETEALARKAPNLSAGKSKGGRPPRVKDTDTQALESDLSSVLGLDVSIDHRGSTGTLTITYATLEQLDDLSNRLTRGI
notes: ParB, Caulobacter crescentus, with the stated substitutions; pET21b construct, so probably made in E. coli; source: purified (HIS-Select Cobalt gravity flow column, PD-10)
On to B1, for which the binding result in data set [5] is given as “binds”.

B2: C. crescentus ParB (L224C) on a cysteine-less ParB (C297S) background (natural protein, UniProt B8GW30 1-304, looked up)
chain: MESVVVGEPGMSEGRRGLGRGLSALLGEVDAAPAQAPGEQLGGSREAPIEILQRNPDQPRRTFREEDLEDLSNSIREKGVLQPILVRPSPDTAGEYQIVAGERRWRAAQRAGLKTVPIMVRELDDLAVLEIGIIENVQRADLNVLEEALSYKVLMEKFERTQENIAQTIGKSRSHVANTMRLLALPDEVQSYLVSGELTAGHARAIAAAADPVALAKQIIEGGCSVRETEALARKAPNLSAGKSKGGRPPRVKDTDTQALESDLSSVLGLDVSIDHRGSTGTLTITYATLEQLDDLSNRLTRGI
notes: as for B1
B2: the binding result in data set [5] was “binds”.

B3: C. crescentus ParB (I304C) on a cysteine-less ParB (C297S) background (natural protein, UniProt B8GW30 1-304, looked up)
chain: MESVVVGEPGMSEGRRGLGRGLSALLGEVDAAPAQAPGEQLGGSREAPIEILQRNPDQPRRTFREEDLEDLSNSIREKGVLQPILVRPSPDTAGEYQIVAGERRWRAAQRAGLKTVPIMVRELDDLAVLEIGIIENVQRADLNVLEEALSYKVLMEKFERTQENIAQTIGKSRSHVANTMRLLALPDEVQSYLVSGELTAGHARAIAAAADPVALAKQIIEGGLSVRETEALARKAPNLSAGKSKGGRPPRVKDTDTQALESDLSSVLGLDVSIDHRGSTGTLTITYATLEQLDDLSNRLTRGC
notes: as for B1
In the case of B3, in data set [5], the binding result is recorded as “binds”.

B4: 22 bp parS (dsDNA)
DNA 1: GGATGTTTCACGTGAAACATCC
DNA 2: GGATGTTTCACGTGAAACATCC
Regarding B4, the binding result in data set [6] is “binds”.

Values taken from paper PMC8367383, “A CTP-dependent gating mechanism enables ParB spreading on DNA” (eLife, 2021).
